The text below walks through data of US20210324099A1 (Chugai, published 2021).

For test [1], the target named is T1, hCD137.2.3-F.G1d (human).
T1 construct: Portion of the human CD137 extracellular region linked to an antibody constant region
As to the kind of experiment: ELISA; 500 uM kynurenine, Ab 10 ug/mL. Background: ELISA stands for enzyme-linked immunosorbent assay.
Procedure: (§1) Whether the obtained antibodies bind to antigens having a partial sequence of CD137 was assessed by ELISA. […] After the unbound antigens were removed from the plates by washing each well of the plates with the Wash Buffer, the wells were blocked with 50 μL of Blocking Buffer (BlockAce-containing TBS) for one hour or more. To wells from which the Blocking Buffer was removed, each well was supplemented with 10 μL of the purified antibodies prepared at 10 μg/mL in TBS with a final concentration of 500 μM L-kynurenine or TBS with a final concentration of 500 μM kynurenine, and it was left at rest for one hour. AP-conjugated anti-human Kappa antibodies (BIOSOURCE) diluted in TBS with a final concentration of 500 μM kynurenine were added to each well after washing with the Wash Buffer containing a final concentration of 500 μM kynurenine (TBS with 0.1% Tween20). After one hour of incubation, the BluePhos phosphate substrate (KPL) was added after washing with Wash Buffer containing 500 μM kynurenine. Color development of the solution in each well was measured by absorbance at 620 nm after the color development reaction of the solution in each well was stopped by adding the BluePhos Stop Solution. The ratio of absorbance by setting the value of the well with an antibody concentration of 0 μg/mL to 1 is shown.

Test [2] deals with T2, hCD137.1.2-F.G1d (human).
T2 construct: Portion of the human CD137 extracellular region linked to an antibody constant region
As to the kind of experiment: ELISA; 500 uM kynurenine, Ab 10 ug/mL.
Procedure: as §1

Test [3] concerns the target T3, hCD137.1-F-G1d (human).
T3 construct: Portion of the human CD137 extracellular region linked to an antibody constant region
Nature of the test: ELISA; 500 uM kynurenine, Ab 10 ug/mL.
Procedure: as §1

For test [4], the target named is T4, hCD137.3.4-F.G1d (human).
T4 construct: Portion of the human CD137 extracellular region linked to an antibody constant region
As to the kind of experiment: ELISA; 500 uM kynurenine, Ab 10 ug/mL.
Procedure: as §1

In test [5] the target is human FcRn (human, UniProt P55899 24-290; P61769 21-119, limits assumed). Nature of the test: SPR 25C pH 6.0, steady state.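 Also: antibody captured on chip via anti-human Fab-lambda ligand, human FcRn injected as analyte in 50 mM phosphate buffer with 150 mM NaCl and P20.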
Test [6] has as its target T5, hFcgRIIIaV (human, UniProt P08637 17-208).
T5 construct: extracellular domain; also called human FcγRIIIa allotype V158
Nature of the test: SPR 25C; relative to A375-G1T3/B167-Lamlib.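 Also: SPR with antibody captured on an anti-human Fab-lambda chip, human FcγR analyte at 8 nM for FcγRIa or 1000 nM for the others, pH 7.4, FcγR RU per captured antibody unit.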
Procedure: (§2) Biacore T200 (GE Healthcare) was used to evaluate the binding activity to the respective human Fcγ receptor (hereafter referred to as FcγR). Measurement was performed at 25° C. using 50 mM phosphate, 150 mM NaCl, 0.05 w/v %-P20, pH 7.4 as buffer. About 1000 RU of antibody was captured using a sensor chip immobilized with CaptureSelect™ Human Fab-lambda Kinetics Biotin Conjugate (Thermo Fisher Scientific) as a molecule for ligand capturing. Human FcγR was diluted to 8 nM for FcγRIa and 1000 nM for other FcγR in the measurement buffer, and it was interacted to the captured antibody. The binding activity of each antibody to FcγR was assessed by calculating the binding amount of FcγR (RU) per unit amount of antibody using Biacore T200 Evaluation Software 2.0.

Test [7] addresses T6, hFcgRIIIaF (human, UniProt P08637 17-208).
T6 construct: extracellular domain; also called human FcγRIIIa allotype F158
Nature of the test: SPR 25C; relative to A375-G1T3/B167-Lamlib.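 Also: SPR with antibody captured on an anti-human Fab-lambda chip, human FcγR analyte at 8 nM for FcγRIa or 1000 nM for the others, pH 7.4, FcγR RU per captured antibody unit.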
Procedure: as §2

The target of test [8] is T7, hFcgRIa (human, UniProt P12314 16-292).
T7 construct: extracellular domain; also called human FcγRIa; FcγRI
Nature of the test: SPR 25C; relative to A375-G1T3/B167-Lamlib.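 Also: SPR with antibody captured on an anti-human Fab-lambda chip, human FcγR analyte at 8 nM for FcγRIa or 1000 nM for the others, pH 7.4, FcγR RU per captured antibody unit.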
Procedure: as §2

For test [9], the target named is T8, hFcgRIIb (human, UniProt P31994 43-217).
T8 construct: extracellular domain; also called human FcγRIIb
T8 sequence (looked up): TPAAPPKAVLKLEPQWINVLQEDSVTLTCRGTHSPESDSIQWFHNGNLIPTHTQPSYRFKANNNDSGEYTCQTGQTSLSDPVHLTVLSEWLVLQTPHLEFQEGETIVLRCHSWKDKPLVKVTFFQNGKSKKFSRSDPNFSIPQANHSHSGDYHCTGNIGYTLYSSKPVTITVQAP
As to the kind of experiment: SPR 25C; relative to A375-G1T3/B167-Lamlib.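 Also: SPR with antibody captured on an anti-human Fab-lambda chip, human FcγR analyte at 8 nM for FcγRIa or 1000 nM for the others, pH 7.4, FcγR RU per captured antibody unit.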
Procedure: as §2

The target in test [10] is T9, hFcgRIIaH (human, UniProt P12318 34-217).
T9 construct: extracellular domain; also called human FcγRIIa type H (H131)
T9 sequence (looked up): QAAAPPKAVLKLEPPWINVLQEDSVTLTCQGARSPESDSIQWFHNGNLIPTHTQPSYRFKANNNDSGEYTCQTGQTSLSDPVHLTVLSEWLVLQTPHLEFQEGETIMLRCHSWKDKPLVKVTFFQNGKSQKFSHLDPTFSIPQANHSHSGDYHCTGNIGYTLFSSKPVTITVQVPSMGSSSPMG
Nature of the test: SPR 25C; relative to A375-G1T3/B167-Lamlib.
Procedure: as §2

For test [11], the target named is T10, hFcgRIIaR (human, UniProt P12318 34-217).
T10 construct: extracellular domain; also called human FcγRIIa type R (R131)
T10 sequence (looked up): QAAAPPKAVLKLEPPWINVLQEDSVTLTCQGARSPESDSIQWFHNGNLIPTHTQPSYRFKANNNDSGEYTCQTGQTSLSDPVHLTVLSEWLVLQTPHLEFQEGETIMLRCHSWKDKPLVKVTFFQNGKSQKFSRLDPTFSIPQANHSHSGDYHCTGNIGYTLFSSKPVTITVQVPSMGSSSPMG
As to the kind of experiment: SPR 25C; relative to A375-G1T3/B167-Lamlib.
Procedure: as §2

Test [12] has as its target T5, hFcgRIIIaV. Nature of the test: SPR 25C.
The target of test [13] is T6, hFcgRIIIaF. As to the kind of experiment: SPR 25C.
For test [14], the target named is T7, hFcgRIa. As to the kind of experiment: SPR 25C.
Test [15] has as its target T8, hFcgRIIb. Nature of the test: SPR 25C.
For test [16], the target named is T9, hFcgRIIaH. As to the kind of experiment: SPR 25C.
Test [17] concerns the target T10, hFcgRIIaR. Nature of the test: SPR 25C.
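For binding per 1RU of antibody in this document: biacore SPR with antibody captured on an anti-human Fab lambda chip, human FcγR injected at 1000 nM (FcγRIa at 8 nM) in pH 7.4 phosphate buffer.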

T2 sequence (chain, as listed by the source limits assumed): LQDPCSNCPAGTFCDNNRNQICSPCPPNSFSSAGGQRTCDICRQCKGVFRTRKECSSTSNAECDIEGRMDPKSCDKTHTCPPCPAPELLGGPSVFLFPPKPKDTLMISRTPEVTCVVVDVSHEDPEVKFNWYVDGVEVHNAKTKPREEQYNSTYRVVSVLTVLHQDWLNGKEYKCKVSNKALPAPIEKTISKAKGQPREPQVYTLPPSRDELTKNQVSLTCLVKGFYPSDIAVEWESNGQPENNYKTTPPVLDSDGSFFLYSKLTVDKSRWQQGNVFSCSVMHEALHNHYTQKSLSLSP
T7 sequence (P12314 16-292): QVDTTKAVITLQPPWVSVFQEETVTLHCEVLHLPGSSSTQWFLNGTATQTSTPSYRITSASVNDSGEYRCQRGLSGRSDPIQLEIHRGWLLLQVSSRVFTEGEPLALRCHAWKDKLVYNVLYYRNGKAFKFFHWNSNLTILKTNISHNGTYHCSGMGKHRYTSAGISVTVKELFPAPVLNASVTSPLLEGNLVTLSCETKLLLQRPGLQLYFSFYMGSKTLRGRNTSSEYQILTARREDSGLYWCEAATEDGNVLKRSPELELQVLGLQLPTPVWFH
T5 sequence (P08637 17-208 F176V): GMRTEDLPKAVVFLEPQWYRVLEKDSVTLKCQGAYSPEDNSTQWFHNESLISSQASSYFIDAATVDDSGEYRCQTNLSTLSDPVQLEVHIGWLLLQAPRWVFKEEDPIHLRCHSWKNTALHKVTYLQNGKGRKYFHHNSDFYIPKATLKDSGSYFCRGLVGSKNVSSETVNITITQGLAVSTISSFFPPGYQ
T6 sequence (P08637 17-208): as the sequence (P08637 17-208 F176V) above, with V160F counted along it
T3 sequence (chain, as listed by the source limits assumed): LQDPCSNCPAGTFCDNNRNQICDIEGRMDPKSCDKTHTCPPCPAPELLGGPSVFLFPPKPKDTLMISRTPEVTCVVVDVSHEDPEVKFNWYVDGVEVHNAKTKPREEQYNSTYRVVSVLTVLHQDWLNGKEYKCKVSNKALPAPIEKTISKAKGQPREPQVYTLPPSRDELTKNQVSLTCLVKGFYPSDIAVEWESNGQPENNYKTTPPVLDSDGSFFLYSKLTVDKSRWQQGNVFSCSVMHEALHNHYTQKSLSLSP
T1 sequence (chain, as listed by the source limits assumed): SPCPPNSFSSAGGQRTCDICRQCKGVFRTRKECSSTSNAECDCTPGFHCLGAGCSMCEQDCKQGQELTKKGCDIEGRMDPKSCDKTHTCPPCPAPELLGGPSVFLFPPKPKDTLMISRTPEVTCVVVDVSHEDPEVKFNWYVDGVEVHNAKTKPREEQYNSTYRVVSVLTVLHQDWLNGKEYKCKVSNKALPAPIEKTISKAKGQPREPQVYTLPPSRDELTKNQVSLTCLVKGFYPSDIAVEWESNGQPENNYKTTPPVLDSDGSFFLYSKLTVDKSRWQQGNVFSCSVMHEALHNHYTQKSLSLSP
Chain of human FcRn (P55899 24-290 limits assumed, chain 1 of 2): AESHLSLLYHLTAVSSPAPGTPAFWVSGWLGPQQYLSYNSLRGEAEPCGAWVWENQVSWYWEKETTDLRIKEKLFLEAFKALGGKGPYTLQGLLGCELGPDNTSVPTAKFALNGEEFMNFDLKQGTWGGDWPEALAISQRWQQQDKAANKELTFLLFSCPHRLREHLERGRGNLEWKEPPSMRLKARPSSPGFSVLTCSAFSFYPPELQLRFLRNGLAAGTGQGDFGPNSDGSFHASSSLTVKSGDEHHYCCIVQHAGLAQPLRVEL
Chain of human FcRn (P61769 21-119 limits assumed, chain 2 of 2): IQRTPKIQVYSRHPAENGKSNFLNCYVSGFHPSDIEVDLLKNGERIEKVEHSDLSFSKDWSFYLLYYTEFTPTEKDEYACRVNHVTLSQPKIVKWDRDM

B1: dBBK026-P253 (antibody, human IgG1, kappa, V domains shown)
VH: QVQLVQSGAEVKKPGSSVKVSCKASGGEFSNYFISWVRQAPGQGLEWMGMVHPIEGWAVYAQKFQGRVTITADESTSTAYMELSSLRSEDTAVYYCARDRPVFCCPRGAFDIWGQGTLVTVSS
VL: DIVMTQSPLSLPVTPGEPASISCRSSQSLVSPGDNTFLSWYLQKPGQSPQLLIYEIERRFYGVPDRFSGSGSGTDFTLKISRVEAEDVGVYYCMQASTFPRTFGQGTKVEIKR
As to B1, the absorbance ratio is 1.1 in test [1], 1.2 in [2] and 1 in test [3].

B2: dBBK101-P253 (antibody, human IgG1, kappa, V domains shown)
VH: QVQLVQSGAEVKKPGSSVKVSCKASGGAFSYYLISWVRQAPGQGLEWMGFVDPIRGGAFYAQKFQGRVTITADESTSTAYMELSSLRSEDTAVYYCARDRPVNAAPRGAFDIWGQGTLVTVSS
VL: DIVMTQSPLSLPVTPGEPASISCRSSQSLVGDRGNTYLSWYLQKPGQSPQLLIYEIGSIFYGVPDRFSGSGSGTDFTLKISRVEAEDVGVYYCMQAAEFPRTFGQGTKVEIKR
Take B2: the absorbance ratio amounted to 1.2 in test [2] and 1.3 in [3].

B3: dBBK060-P253 (antibody, human IgG1, kappa, V domains shown)
VH: QVQLVQSGAEVKKPGSSVKVSCKASGGDFSNYVISWVRQAPGQGLEWMGFINPIYGAAGYAQKFQGRVTITADESTSTAYMELSSLRSEDTAVYYCARDEPVASLPHGAFDIWGQGTLVTVSS
VL: DIVMTQSPLSLPVTPGEPASISCRSSQSLVDPWGNTFLSWYLQKPGQSPQLLIYEISNRFYGVPDRFSGSGSGTDFTLKISRVEAEDVGVYYCMQAKDFPRTFGPGTKVEIKR
For the molecule B3, the values for the absorbance ratio in test [1], in [2] and in test [3] were 1.2, 1.4 and 1.2, respectively.

B4: dBBK051-P253 (antibody, human IgG1, kappa, V domains shown)
VH: QVQLVQSGAEVKKPGSSVKVSCKASGGGFSSYGISWVRQAPGQGLEWMGALFPISSQASYAQKFQGRVTITADESTSTAYMELSSLRSEDTAVYYCARDRPVDYVPHGAFDIWGQGTLVTVSS
VL: DIVMTQSPLSLPVTPGEPASISCRSSQSLVSPGDNTFLSWYLQKPGQSPQLLIYEIERRFYGVPDRFSGSGSGTDFTLKISRVEAEDVGVYYCMQASTFPRTFGQGTKVEIKR
B4: the absorbance ratio in [2] and in test [3] was 1.2 each time.

B5: dBBK070-P253 (antibody, human IgG1, kappa, V domains shown)
VH: QVQLVQSGAEVKKPGSSVKVSCKASGGWFSHYSISWVRQAPGQGLEWMGVVWPIRSFATYAQKFQGRVTITADESTSTAYMELSSLRSEDTAVYYCARDNPVTSWPHGAFDIWGQGTLVTVSS
VL: DIVMTQSPLSLPVTPGEPASISCRSSQSLVRPFGNTFLSWYLQKPGQSPQLLIYEISTRFYGVPDRFSGSGSGTDFTLKISRVEAEDVGVYYCMQAHQFPRTFGQGTKVEIKR
B5: the figures for the absorbance ratio in test [4] and in test [3] were 1.2 and 1.8, respectively.

B6: A375-TT14/B167-Lamlib (antibody, human IgG1, lambda)
heavy: EVQLVESGGGLVKPGGSLRLSCAASGFTFSTFTMNWVRQAPGKGLEWVSSISSKSTYIEYADSFKVRFTISRDNAKNSLYLQMNSLRAEDTAVYYCARYGAKNFLNWVFDYWGQGTLVTVSSASTKGPSVFPLAPSSKSTSGGTAALGCLVKDYFPEPVTVSWNSGALTSGVHTFPAVLQSSGLYSLSSVVTVPSSSLGTQTYICNVNHKPSNTKVDKKVEPKSCDKTHTCPPCPAPEYLGGDSVFLFPPKPKDVLMISRTPEVTCVVIDVSHEDPEVKFNWYVDGVEVHNAKTKPREEQYNSTYRVVSVLPVLHQDWLNGKEYKCKVSNKALPKPIEKTISKAKGQPREPQVYTLPPSREEMTKNQVSLTCLVKGFYPSDIAVEWESNGQPENNYKTTPPVLDSDGSFFLYSKLTVDKSRWQQGNVFSCSVMHEALHNHYTQKSLSLSP
light: QSALTQPPSASGSPGQTVTISCTGTRYDVGYYEYVSWYQQHPGKAPKLMIYETSKRLSGVPDRFSGSKSGNTASLTVSGLQAEDEADYYCSSYRYEHQVSFGGGTKLTVLGQPKAAPSVTLFPPSSEELQANKATLVCLISDFYPGAVTVAWKADSSPVKAGVETTTPSKQSNNKYAASSYLSLTPEQWKSHRSYSCQVTHEGSTVEKTVAPTECS
notes: copies: 2 + 2
Molecule B6 registered a Kd in test [5] of 1770 nM. Besides, the relative binding amount in test [6] came out at 0; in [7] it was 0; in test [8] it was 0.05; in [9] it was 7.34; in test [10] it was 0.07; in test [11] it was 0.14. The “binding per 1RU of antibody” value in test [12] stood at 0.0003 RU; in test [13], 0 RU; in test [14], 0.0045 RU; in test [15], 0.0805 RU; in [16], 0.0042 RU; in test [17] it was 0.0067 RU.

B7: A375-TT16/B167-Lamlib (antibody, human IgG1, lambda)
heavy: EVQLVESGGGLVKPGGSLRLSCAASGFTFSTFTMNWVRQAPGKGLEWVSSISSKSTYIEYADSFKVRFTISRDNAKNSLYLQMNSLRAEDTAVYYCARYGAKNFLNWVFDYWGQGTLVTVSSASTKGPSVFPLAPSSKSTSGGTAALGCLVKDYFPEPVTVSWNSGALTSGVHTFPAVLQSSGLYSLSSVVTVPSSSLGTQTYICNVNHKPSNTKVDKKVEPKSCDKTHTCPPCPAPEYLGDDSVFLFPPKPKDVLMISRTPEVTCVVVDVSHEDPEVKFNWYVDGVEVHNAKTKPREEQYNSTYRVVSVLPVLHQDWLNGKEYKCKVSNKALPKPIEKTISKAKGQPREPQVYTLPPSREEMTKNQVSLTCLVKGFYPSDIAVEWESNGQPENNYKTTPPVLDSDGSFFLYSKLTVDKSRWQQGNVFSCSVMHEALHNHYTQKSLSLSP
light: QSALTQPPSASGSPGQTVTISCTGTRYDVGYYEYVSWYQQHPGKAPKLMIYETSKRLSGVPDRFSGSKSGNTASLTVSGLQAEDEADYYCSSYRYEHQVSFGGGTKLTVLGQPKAAPSVTLFPPSSEELQANKATLVCLISDFYPGAVTVAWKADSSPVKAGVETTTPSKQSNNKYAASSYLSLTPEQWKSHRSYSCQVTHEGSTVEKTVAPTECS
notes: copies: 2 + 2
As for B7, the Kd in test [5] stood at 1510 nM. Besides, the relative binding amount in test [6] is 0; in [7], 0; in [8] it was 0.04; in [9] it was 9.94; in [10], 0.22; in [11] it was 0.77. The “binding per 1RU of antibody” value in test [12] was -0.0002 RU; in [13], 0.0001 RU; in [14], 0.0034 RU; in test [15] it was 0.109 RU; in test [16], 0.0126 RU; in test [17] it was 0.0359 RU.

By Kd is commonly meant the equilibrium constant for the complex coming apart. The low end stands for a tighter complex, the high end for a looser complex.
